Reference: PMC5507773, “Argonaute Utilization for miRNA Silencing Is Determined by Phosphorylation-Dependent Recruitment of LIM-Domain-Containing Proteins” (Cell Reports, 2017)

Biological target: T1, purified un-tagged AGO2 (hAGO2) (human, UniProt Q9UKV8 1-859)
T1 construct: AGO2, human, un-tagged; also called un-tagged crystallography grade hAGO2; source: purified, un-tagged, crystallography grade (De and Macrae, 2011)
Assay: pull-down; MBP direct binding assay: purified un-tagged hAGO2 with MBP-VO, MBP-LIMD1 or MBP-LIMD1 140-166
Details: both partners purified

T1 sequence (Q9UKV8 whole entry): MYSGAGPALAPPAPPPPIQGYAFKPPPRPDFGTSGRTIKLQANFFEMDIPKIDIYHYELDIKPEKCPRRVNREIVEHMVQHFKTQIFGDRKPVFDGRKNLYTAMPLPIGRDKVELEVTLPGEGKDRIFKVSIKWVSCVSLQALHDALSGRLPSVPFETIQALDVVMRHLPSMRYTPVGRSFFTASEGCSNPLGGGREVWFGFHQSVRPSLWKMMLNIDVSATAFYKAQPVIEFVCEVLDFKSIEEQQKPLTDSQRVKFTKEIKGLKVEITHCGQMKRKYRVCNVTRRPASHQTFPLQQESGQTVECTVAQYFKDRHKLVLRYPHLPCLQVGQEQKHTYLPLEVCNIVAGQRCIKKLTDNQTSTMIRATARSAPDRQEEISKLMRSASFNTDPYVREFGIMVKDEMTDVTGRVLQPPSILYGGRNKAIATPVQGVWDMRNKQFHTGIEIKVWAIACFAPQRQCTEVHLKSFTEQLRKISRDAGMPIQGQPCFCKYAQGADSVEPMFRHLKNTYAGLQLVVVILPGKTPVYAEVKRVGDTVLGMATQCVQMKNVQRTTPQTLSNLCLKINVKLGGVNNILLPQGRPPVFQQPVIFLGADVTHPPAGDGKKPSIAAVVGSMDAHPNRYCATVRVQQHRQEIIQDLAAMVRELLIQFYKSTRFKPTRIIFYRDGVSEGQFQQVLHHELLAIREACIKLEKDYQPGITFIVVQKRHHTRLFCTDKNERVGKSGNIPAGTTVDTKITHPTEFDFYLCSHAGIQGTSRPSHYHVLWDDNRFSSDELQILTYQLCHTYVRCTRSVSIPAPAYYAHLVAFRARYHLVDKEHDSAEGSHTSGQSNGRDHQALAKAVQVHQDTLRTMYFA

Row | binding result | Binder
1 | binds | GTRHGSQDCGSRESLATSEMSAFHQPG (domain or fragment, UniProt Q9UGP4 140-166, looked up, source: recombinant, purified (details in Supplemental Experimental Procedures)) [MBP-LIMD1 140–166 (AB motif)]
2 | binds | maltose binding protein (MBP)-tagged full-length LIMD1 (natural protein, LIMD1, full length; also called MBP-LIMD1; MBP-LIMD1 full-length; source: recombinant, purified (details in Supplemental Experimental Procedures)) not shown
